Where two headings read alike, the source gives them in different places.

For test [1], the target named is MART-1:27-35 peptide presented by HLA-A2 on target cells (UniProt Q16655). As to the kind of experiment: cell-based or functional assay.
Test [2] addresses MART-1 peptide on HLA-A*02:01 (human). As to the kind of experiment: peptide titration, transfected CD4+ T cells, peptide-pulsed target cells; upper bound 100 fold; minimal effect in CD8+ T cells; full-length, on cells.
Test [3] has as its target MART-1:27-35 peptide presented by HLA-A2 on target cells (UniProt Q16655). Kind of test: cell-based or functional assay. This is another data set of the same source.

In test [1], DMF4 TCR, WT α + β51:A (G51A) showed an IFN-γ; CD4+ T; 624.38 of 15800 pg/mL, an IFN-γ; CD4+ T; 1300 of 11200 pg/mL, an IFN-γ; CD8+ T; 624.38 of 32800 pg/mL and an IFN-γ; CD8+ T; 1300 of 78000 pg/mL. The peptide titration; CD4+ T; fold lower MART-1:27-35 concentration recognized vs WT DMF4 in test [1] fell in the range of 10 to 100 fold.

In test [1], “DMF4 anti-MART-1 TCR, wild type α and β chains” came in with an IFN-γ; CD4+ T; 624.38 of 3220 pg/mL, an IFN-γ; CD4+ T; 1300 of 3480 pg/mL, an IFN-γ; CD8+ T; 624.38 of 47700 pg/mL and an IFN-γ; CD8+ T; 1300 of 32800 pg/mL.

In the case of DMF4 β51:A, the fold lower peptide concentration recognised than with the WT TCR in test [2] was more than 10 fold.

B1: DMF4 TCR, αLA (T93L/G94A) + WT β (TCR, part only; not given: wild type beta chain, part only)
TCR alpha: GQQLNQSPQSMFIQEGEDVSMNCTSSSIFNTWLWYKQDPGEGPVLLIALYKAGELTSNGRLTAQFGITRKDSFLNISASIPSDVGIYFCAGGLANQFYFGTGTSLTVIPNIQNPDPAVYQLRDSKSSDKSVCLFTDFDSQTNVSQSKDSDVYITDKTVLDMRSMDFKSNSAVAWSNKSDFACANAFNNSIIPEDTFFPSPESSCDVKLVEKSFETDTNLNFQNLSVIGFRILLLKVAGFNLLMTLRLWSS
In test [3], B1 gave an IFN-γ; CD4+ T; 624.38 of 20400 pg/mL, an IFN-γ; CD4+ T; 1300 of 11100 pg/mL, an IFN-γ; CD8+ T; 624.38 of 36400 pg/mL and an IFN-γ; CD8+ T; 1300 of 91800 pg/mL.

These data come from patent US20100297093A1.
